The conditions of this data set: Escherichia coli (strain K12), Thermal, CD, NaCl 0.1 M, reversible: yes, whole UniProt chain shown.

What is called Tm is the temperature at the midpoint of the melting transition.

B1: Ribonuclease HI wild type, P0A7Y4 (protein)
chain: MLKQVEIFTDGSCLGNPGPGGYGAILRYRGREKTFSAGYTRTTNNRMELMAAIVALEALKEHCEVILSTDSQYVRQGITQWIHNWKKRGWKTADKKPVKNVDLWQRLDAALGQHQIKWEWVKGHAGHPENERCDELARAAAMNPTLEDTGYQVEV
With B1, the Tm (pH 3, glycine-HCl 10 mM) was determined as 49.8 °C and the midpoint of thermal melting (Tm) (pH 5.5, Sodium acetate 20 mM) was determined as 52 °C.

These data come from FireProtDB (doi:10.1021/bi00416a052).
